The target of experiment [1] is Spike Delta (SARS-CoV-2).
Experiment [2] deals with T1, Spike Delta (SARS-CoV-2).
T1 construct: also called Delta spike; delta spike protein
The experiment is described as follows: SPR, Delta spike as solid phase [panel C].

Read-outs that look alike come from different tables or passages of the source.

B1: 1-Arm (designed binder)
LCB1 mini-binder coupled to a DNA handle that is hybridised to one arm of a 3-helix-bundle DNA nanostructure: DKEWILQKIYEIMRLLDELGHAEASMRVSDLIYEFMKKGDERLLEEAERLLEEVER
By Kd is commonly meant a measure of binding affinity in units of concentration. Lower therefore signals a tighter complex. B1 yielded a Kd in experiment [1] of 0.14 nM. That is a sub-nanomolar value.

B2: Tri-pdbody (designed binder)
LCB1 mini-binder coupled to a DNA handle that is hybridised to an arm of a 3-helix-bundle DNA nanostructure: B1 LCB1 mini-binder coupled to a DNA handle that is hybridised to one arm of a 3-helix-bundle DNA nanostructure
notes: also called 3-Arm; 3arm
As for B2, the results for the Kd in experiment [2] and in experiment [1] were 0.216 nM and 0.1 nM, respectively.

B3: 2-Arm (designed binder)
LCB1 mini-binder coupled to a DNA handle that is hybridised to an arm of a 3-helix-bundle DNA nanostructure: B1 LCB1 mini-binder coupled to a DNA handle that is hybridised to one arm of a 3-helix-bundle DNA nanostructure
Consider B3, for which binding in experiment [1] was put at a Kd of 0.14 nM. This counts as sub-nanomolar.

Values taken from patent US20250222126A1 (ARIZONA BOARD OF REGENTS ON BEHALF OF ARIZONA STATE …, published 2025).
